T1: recombinant human CD123-Fc (human, UniProt P26951 19-305)
T1 construct: not shown: Fc part of CD123-Fc
T1 sequence: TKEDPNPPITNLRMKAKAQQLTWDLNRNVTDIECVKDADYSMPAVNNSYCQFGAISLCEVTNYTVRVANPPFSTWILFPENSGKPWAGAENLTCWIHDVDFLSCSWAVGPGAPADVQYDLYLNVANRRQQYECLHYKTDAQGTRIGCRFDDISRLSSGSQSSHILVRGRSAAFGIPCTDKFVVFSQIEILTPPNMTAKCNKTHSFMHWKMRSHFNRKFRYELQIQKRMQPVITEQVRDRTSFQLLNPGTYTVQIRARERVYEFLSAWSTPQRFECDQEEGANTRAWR


target: T1, recombinant human CD123-Fc; assay: phage ELISA, captured CD123-Fc
Summary of the method: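 Readout is the clone-averaged A450 ratio of target-Fc over IgG1-Fc wells, detected with HRP-conjugated anti-M13. Each Fc protein (5 nM) was captured on goat anti-human IgG1-Fc-coated plates. Phage were rescued with VCSM13 from BCMA-panning colonies and added at 5× dilution.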

Binder | ELISA_avg
SEQ ID NO: 548 (designed binder, D domain, on phage) MGSWTEFDDRLFAIYWRLDALGGSEAELAWFEEVIAEFENDLQVYKGKGNPEVEALDDEAHAISIELEAYRHN | 6.4 ratio A450 target/IgG1-Fc
SEQ ID NO: 540 (designed binder, D domain, on phage) MGSWYEFDDRLDAIAYRLNALGGSEAELAWFEWEIAEFELDLQWYKGKGNPEVEALVWEADAIEWELEAYRHN | 4.6 ratio A450 target/IgG1-Fc
SEQ ID NO: 580 (designed binder, D domain, on phage) MGSWIEFFHRLDAIQDRLDALGGSEAELAYFEWAIADFEHMLQLYKGKGNPEVEALQFEAFAIEGELYAYRHN | 3.5 ratio A450 target/IgG1-Fc
SEQ ID NO: 557 (designed binder, D domain, on phage) MGSWEEFHERLDAIDERLEALGGSEAELAFFEDDIASFEDWLQWYKGKGNPEVEALSREADAINFELEAYRHN | 4.3 ratio A450 target/IgG1-Fc
SEQ ID NO: 561 (designed binder, D domain, on phage) MGSWNEFLLRLDAIEHRLFALGGSEAELAEFEWEIADFEDDLQWYKGKGNPEVEALVEEAEAIDVELVAYRHN | 3.2 ratio A450 target/IgG1-Fc
SEQ ID NO: 578 (designed binder, D domain, on phage) MGSWYEFVSRLDAIEYRLWALGGSEAELAWFEWDIADFEQGLQFYKGKGNPEVEALAQEANAIGSELTAYRHN | 3.2 ratio A450 target/IgG1-Fc
SEQ ID NO: 541 (designed binder, D domain, on phage) MGSWFEFDERLDAIGSRLTALGGSEAELASFEFYIADFEEWLQQYKGKGNPEVEALEWEAFAIDEELGAYRHN | 3.8 ratio A450 target/IgG1-Fc
SEQ ID NO: 554 (designed binder, D domain, on phage) MGSWDEFYYRLVAITHRLHALGGSEAELAWFEDDIAGFEWDLQTYKGKGNPEVEALYKEAGAIGMELTAYRHN | 5.4 ratio A450 target/IgG1-Fc
SEQ ID NO: 556 (designed binder, D domain, on phage) MGSWREFDQRLWAIDWRLEALGGSEAELAMFEWMIATFEDDLQWYKGKGNPEVEALYREAFAIDWELDAYRHN | 3.4 ratio A450 target/IgG1-Fc
SEQ ID NO: 545 (designed binder, D domain, on phage) MGSWYEFDHRLEAIYDRLWALGGSEAELAFFEFDIADFEWDLQSYKGKGNPEVEALFDEAAAIGHELLAYRHN | 4.5 ratio A450 target/IgG1-Fc
SEQ ID NO: 555 (designed binder, D domain, on phage) MGSWEEFDTRLLAIFGRLGALGGSEAELALFEMLIAKFEDDLQNYKGKGNPEVEALSEEAFAIDHELGAYRHN | 6.7 ratio A450 target/IgG1-Fc
SEQ ID NO: 565 (designed binder, D domain, on phage) MGSWFEFDQRLDAITFRLWALGGSEAELAEFEDVIALFEYHLQDYKGKGNPEVEALEVEAWAIFHELGAYRHN | 3.2 ratio A450 target/IgG1-Fc
SEQ ID NO: 539 (designed binder, D domain, on phage) MGSWSEFDSRLDAIAYRLFALGGSEAELAQFEWIIADFEEDLQMYKGKGNPEVEALFSEAYAIEIELNAYRHN | 4.3 ratio A450 target/IgG1-Fc
SEQ ID NO: 546 (designed binder, D domain, on phage) MGSWNEFDDRLLAIWGRLDALGGSEAELAFFEEQIAGFEDELQWYKGKGNPEVEALDQEAEAIEKELWAYRHN | 4.1 ratio A450 target/IgG1-Fc
SEQ ID NO: 558 (designed binder, D domain, on phage) MGSWNEFYERLEAIDRRLFALGGSEAELALFEWMIADFEDDLQMYKGKGNPEVEALINEAGAIGFELEAYRHN | 5.2 ratio A450 target/IgG1-Fc
SEQ ID NO: 567 (designed binder, D domain, on phage) MGSWYEFWDRLTAIEHRLWALGGSEAELAYFEDSIAHFEGSLQVYKGKGNPEVEALYKEAEAIEWELEAYRHN | 4.4 ratio A450 target/IgG1-Fc
SEQ ID NO: 570 (designed binder, D domain, on phage) MGSWSEFVDRLDAIFDRLWALGGSEAELAWFEDTIAHFEWNLQEYKGKGNPEVEALNGEADAITDELHAYRHN | 5.3 ratio A450 target/IgG1-Fc
SEQ ID NO: 552 (designed binder, D domain, on phage) MGSWYEFESRLEAIWWRLEALGGSEAELAQFEQYIADFEQHLQWYKGKGNPEVEALDWEADAIWLELQAYRHN | 4.4 ratio A450 target/IgG1-Fc
SEQ ID NO: 573 (designed binder, D domain, on phage) MGSWTEFEERLEAIWDRLYALGGSEAELAAFEWDIAYFEDGLQEYKGKGNPEVEALFMEAEAIIRELKAYRHN | 5.9 ratio A450 target/IgG1-Fc
SEQ ID NO: 559 (designed binder, D domain, on phage) MGSWTEFTQRLEAIVDRLFALGGSEAELAEFENSIADFEWDLQWYKGKGNPEVEALNREAVAIDNELWAYRHN | 3.9 ratio A450 target/IgG1-Fc
SEQ ID NO: 566 (designed binder, D domain, on phage) MGSWSEFWFRLDAIEDRLWALGGSEAELAEFEDNIALFEYSLQHYKGKGNPEVEALVKEANAIDDELGAYRHN | 4.5 ratio A450 target/IgG1-Fc

Binder | ELISA_avg
SEQ ID NO: 576 (designed binder, D domain, on phage) MGSWMEFEDRLIAIWARLDALGGSEAELAWFEADIADFEESLQEYKGKGNPEVEALIFEAIAINKELMAYRHN | 3.7 ratio A450 target/IgG1-Fc
SEQ ID NO: 544 (designed binder, D domain, on phage) MGSWEEFDKRLDAITRRLMALGGSEAELAEFESTIAWFEWDLQEYKGKGNPEVEALDWEAYAIDYELGAYRHN | 4.5 ratio A450 target/IgG1-Fc
SEQ ID NO: 563 (designed binder, D domain, on phage) MGSWEEFHWRLGAIDARLEALGGSEAELAWFEDGIADFEAILQDYKGKGNPEVEALDSEAVAIHHELWAYRHN | 3.3 ratio A450 target/IgG1-Fc
SEQ ID NO: 571 (designed binder, D domain, on phage) MGSWAEFDSRLDAIAQRLFALGGSEAELAHFEDFIAQFEYSLQEYKGKGNPEVEALSNEADAIFNELKAYRHN | 3.6 ratio A450 target/IgG1-Fc
SEQ ID NO: 564 (designed binder, D domain, on phage) MGSWYEFYERLWAIDDRLWALGGSEAELAEFEDSIATFEPSLQMYKGKGNPEVEALVAEAWAIFDELAAYRHN | 3.6 ratio A450 target/IgG1-Fc
SEQ ID NO: 577 (designed binder, D domain, on phage) MGSWFEFTIRLEAIQDRLDALGGSEAELAWFEWDIAEFEEGLQFYKGKGNPEVEALHTEADAIMNELVAYRHN | 3.5 ratio A450 target/IgG1-Fc
SEQ ID NO: 568 (designed binder, D domain, on phage) MGSWYEFDDRLWAIFDRLFALGGSEAELAFFEDSIAEFEEELQHYKGKGNPEVEALYLEAWAIENELGAYRHN | 4.7 ratio A450 target/IgG1-Fc
SEQ ID NO: 542 (designed binder, D domain, on phage) MGSWEEFDQRLDAIDVRLYALGGSEAELAEFEFDIAAFEEWLQLYKGKGNPEVEALNMEAFAITDELCAYRHN | 3.6 ratio A450 target/IgG1-Fc
SEQ ID NO: 560 (designed binder, D domain, on phage) MGSWVEFIMRLDAIYERLDALGGSEAELAEFEWHIADFEDHLQWYKGKGNPEVEALFEEADAIWEELWAYRHN | 6.4 ratio A450 target/IgG1-Fc
SEQ ID NO: 551 (designed binder, D domain, on phage) MGSWMEFDYRLEAIWMRLIALGGSEAELADFESSIADFEHHLQSYKGKGNPEVEALEWEAFAIGVELDAYRHN | 3.1 ratio A450 target/IgG1-Fc
SEQ ID NO: 543 (designed binder, D domain, on phage) MGSWEEFDVRLDAIFNRLWALGGSEAELAEFEFDIAWFEMDLQEYKGKGNPEVEALFDEAEAITNELVAYRHN | 4.7 ratio A450 target/IgG1-Fc
SEQ ID NO: 550 (designed binder, D domain, on phage) MGSWYEFDERLWAIWERLDALGGSEAELAHFEWVIADFENDLQWYKGKGNPEVEALEFEAEAIVTELHAYRHN | 3.6 ratio A450 target/IgG1-Fc
SEQ ID NO: 574 (designed binder, D domain, on phage) MGSWYEFEDRLAAIWDRLNALGGSEAELAIFEWDIAWFEEGLQEYKGKGNPEVEALKHEASAIQTELFAYRHN | 6.4 ratio A450 target/IgG1-Fc
SEQ ID NO: 562 (designed binder, D domain, on phage) MGSWYEFNMRLGAIDDRLQALGGSEAELAWFEDMIAIFEDDLQIYKGKGNPEVEALEQEAAAIHQELWAYRHN | 3.8 ratio A450 target/IgG1-Fc
SEQ ID NO: 575 (designed binder, D domain, on phage) MGSWLEFESRLWAIWDRLDALGGSEAELAHFEQDIADFEMSLQEYKGKGNPEVEALIREAEAIETELYAYRHN | 3.4 ratio A450 target/IgG1-Fc
SEQ ID NO: 572 (designed binder, D domain, on phage) MGSWAEFDSRLIAIFDRLWALGGSEAELAWFEDDIAQFEQHLQAYKGKGNPEVEALRQEADAITFELKAYRHN | 3.6 ratio A450 target/IgG1-Fc
SEQ ID NO: 579 (designed binder, D domain, on phage) MGSWEEFDYRLYAIQDRLYALGGSEAELAFFEWEIADFEHMLQMYKGKGNPEVEALFQEADAIDAELHAYRHN | 4.4 ratio A450 target/IgG1-Fc
SEQ ID NO: 553 (designed binder, D domain, on phage) MGSWEEFYMRLVAIHMRLRALGGSEAELAVFENYIAEFEEYLQYYKGKGNPEVEALTIEADAIGTELGAYRHN | 4.4 ratio A450 target/IgG1-Fc
SEQ ID NO: 547 (designed binder, D domain, on phage) MGSWVEFDDRLDAIWERLDALGGSEAELAWFEEQIAVFEHQLQDYKGKGNPEVEALNQEAEAIDLELKAYRHN | 5 ratio A450 target/IgG1-Fc
SEQ ID NO: 549 (designed binder, D domain, on phage) MGSWSEFDQRLEAIWNRLDALGGSEAELADFEREIAYFENQLQWYKGKGNPEVEALNNEAFAIVDELGAYRHN | 3.4 ratio A450 target/IgG1-Fc
SEQ ID NO: 569 (designed binder, D domain, on phage) MGSWNEFVERLSAIDHRLWALGGSEAELADFEQQIAEFEIHLQEYKGKGNPEVEALDFEADAIFDELLAYRHN | 3.2 ratio A450 target/IgG1-Fc

— US20230125550A1 (ARCELLX, published 2023)
